This test deals with T1, HLA-A*02:01 (human).
T1 construct: monomers captured on streptavidin plates; also called MHC class I
Kind of test: UV peptide exchange ELISA. The method, boiled down:
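Peptide-MHC complexes formed by UV-triggered exchange of a cleavable peptide for the test peptide, with stabilised complexes indicating binding. Exchange products diluted 100 fold onto streptavidin-coated wells, 1h at 37° C.; HRP anti-β2m (2 μg/ml), TMB, absorbance at 450 nm gives exchange yield.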
Background: ELISA stands for enzyme-linked immunosorbent assay.

These results are taken from patent US20170037110A1 (IMMATICS BIOTECHNOLOGIES, published 2017).

Where only a bound is given, the exact number is not on record here.

B1: ALSEEGLLVYL (peptide)
peptide: ALSEEGLLVYL
B1 returned a peptide exchange yield of 50 to 75%.

B2: ILLSQTTGV (peptide)
peptide: ILLSQTTGV
For B2, the peptide exchange yield was 50 to 75%.

B3: LLDGFLVNV (peptide)
peptide: LLDGFLVNV
As to B3, the peptide exchange yield lay in the range of 50 to 75%.

B4: SLLFSLFEA (peptide)
peptide: SLLFSLFEA
On to B4, for which the peptide exchange yield fell in the range of 20 to 50%.

B5: LLFGGTKTV (peptide)
peptide: LLFGGTKTV
Consider B5, for which the peptide exchange yield lay within 20 to 50%.

B6: ALYTGFSILV (peptide)
peptide: ALYTGFSILV
In turn, B6 had a peptide exchange yield of 20 to 50%.

B7: SLQEQLHSV (peptide)
peptide: SLQEQLHSV
Turning to B7, the peptide exchange yield is 50 to 75%.

B8: VLLEIEDLQV (peptide)
peptide: VLLEIEDLQV
As for B8, the peptide exchange yield was no less than 75%.

B9: VLASYNLTV (peptide)
peptide: VLASYNLTV
In the case of B9, the peptide exchange yield is 50 to 75%.

B10: LLPPLESLATV (peptide)
peptide: LLPPLESLATV
The molecule B10 registered a peptide exchange yield of 20 to 50%.

B11: VLLPNDLLEKV (peptide)
peptide: VLLPNDLLEKV
As for B11, the peptide exchange yield fell in the range of 50 to 75%.

B12: YLVYILNEL (peptide)
peptide: YLVYILNEL
Molecule B12 had a peptide exchange yield of 20 to 50%.

B13: VLPDPEVLEAV (peptide)
peptide: VLPDPEVLEAV
B13: the peptide exchange yield lay in the range of 50 to 75%.

B14: LLVSNLDFGV (peptide)
peptide: LLVSNLDFGV
On to B14, for which the peptide exchange yield lay within 50 to 75%.

B15: TLLAFIMEL (peptide)
peptide: TLLAFIMEL
Molecule B15 registered a peptide exchange yield of 50 to 75%.

B16: FLNEFFLNV (peptide)
peptide: FLNEFFLNV
B16 came in with a peptide exchange yield of 50 to 75%.

B17: LLLDEEGTFSL (peptide)
peptide: LLLDEEGTFSL
Molecule B17 came in with a peptide exchange yield of 20 to 50%.

B18: SIFSAFLSV (peptide)
peptide: SIFSAFLSV
Turning to B18, the peptide exchange yield is 50 to 75%.

B19: KITDTLIHL (peptide)
peptide: KITDTLIHL
As to B19, the peptide exchange yield lay in the range of 50 to 75%.

B20: YLVAKLVEV (peptide)
peptide: YLVAKLVEV
Take B20: the peptide exchange yield lay in the range of 20 to 50%.

B21: LLIGTDVSL (peptide)
peptide: LLIGTDVSL
The molecule B21 came in with a peptide exchange yield of 50 to 75%.

B22: ELAERVPAI (peptide)
peptide: ELAERVPAI
With B22, the peptide exchange yield fell in the range of 20 to 50%.

B23: VLDRESPNV (peptide)
peptide: VLDRESPNV
The molecule B23 showed a peptide exchange yield of 50 to 75%.

B24: LLWGDLIWL (peptide)
peptide: LLWGDLIWL
B24 gave a peptide exchange yield of 50 to 75%.

B25: ALQDFLLSV (peptide)
peptide: ALQDFLLSV
Molecule B25 had a peptide exchange yield of 50 to 75%.

B26: GLLPGDRLVSV (peptide)
peptide: GLLPGDRLVSV
B26: the peptide exchange yield was 50 to 75%.

B27: FLPPEHTIVYI (peptide)
peptide: FLPPEHTIVYI
Regarding B27, the peptide exchange yield fell in the range of 50 to 75%.

B28: LLWEVVSQL (peptide)
peptide: LLWEVVSQL
The molecule B28 came in with a peptide exchange yield of 50 to 75%.

B29: LLLNELPSV (peptide)
peptide: LLLNELPSV
Regarding B29, the peptide exchange yield was 50 to 75%.

B30: ILRESTEEL (peptide)
peptide: ILRESTEEL
B30 displayed a peptide exchange yield of 50 to 75%.

B31: ALYIGDGYVIHLA (peptide)
peptide: ALYIGDGYVIHLA
The molecule B31 registered a peptide exchange yield of 50 to 75%.

B32: GLDAATATV (peptide)
peptide: GLDAATATV
In turn, B32 had a peptide exchange yield of 20 to 50%.

B33: NLINEINGV (peptide)
peptide: NLINEINGV
For B33, the peptide exchange yield lay in the range of 50 to 75%.

B34: FLFPNQYVDV (peptide)
peptide: FLFPNQYVDV
B34 showed a peptide exchange yield of 50 to 75%.

B35: ALGNTVPAV (peptide)
peptide: ALGNTVPAV
For B35, the peptide exchange yield was in the range of 50 to 75%.

B36: FMVDNEAIYDI (peptide)
peptide: FMVDNEAIYDI
B36 yielded a peptide exchange yield of no less than 75%.

B37: LVYPLELYPA (peptide)
peptide: LVYPLELYPA
For B37, the peptide exchange yield is 50 to 75%.

B38: YLFPGIPEL (peptide)
peptide: YLFPGIPEL
In the case of B38, the peptide exchange yield fell in the range of 50 to 75%.

B39: QLLDVVLTI (peptide)
peptide: QLLDVVLTI
As for B39, the peptide exchange yield was in the range of 20 to 50%.

B40: QLLHVGVTV (peptide)
peptide: QLLHVGVTV
In the case of B40, the peptide exchange yield lay within 50 to 75%.

B41: SLFGGTEITI (peptide)
peptide: SLFGGTEITI
B41 registered a peptide exchange yield of 50 to 75%.

B42: ALFTFSPLTV (peptide)
peptide: ALFTFSPLTV
In turn, B42 gave a peptide exchange yield of 50 to 75%.

B43: VLFQGQASL (peptide)
peptide: VLFQGQASL
In turn, B43 had a peptide exchange yield of 50 to 75%.

B44: ALWGGTQPLL (peptide)
peptide: ALWGGTQPLL
In turn, B44 came in with a peptide exchange yield of 20 to 50%.

B45: SMIDDLLGV (peptide)
peptide: SMIDDLLGV
For B45, the peptide exchange yield lay within 50 to 75%.

B46: LLADVVPTT (peptide)
peptide: LLADVVPTT
Take B46: the peptide exchange yield lay in the range of 50 to 75%.

B47: RVLEVGALQAV (peptide)
peptide: RVLEVGALQAV
With B47, the peptide exchange yield fell in the range of 20 to 50%.

B48: NLFQSVREV (peptide)
peptide: NLFQSVREV
B48 returned a peptide exchange yield of 20 to 50%.

B49: YVLEFLEEI (peptide)
peptide: YVLEFLEEI
In the case of B49, the peptide exchange yield is 20 to 50%.
